In one test the target is T1, cynomolgus 5T4 on cells (cynomolgus macaque, UniProt Q4R8Y9 35-420).
T1 chain: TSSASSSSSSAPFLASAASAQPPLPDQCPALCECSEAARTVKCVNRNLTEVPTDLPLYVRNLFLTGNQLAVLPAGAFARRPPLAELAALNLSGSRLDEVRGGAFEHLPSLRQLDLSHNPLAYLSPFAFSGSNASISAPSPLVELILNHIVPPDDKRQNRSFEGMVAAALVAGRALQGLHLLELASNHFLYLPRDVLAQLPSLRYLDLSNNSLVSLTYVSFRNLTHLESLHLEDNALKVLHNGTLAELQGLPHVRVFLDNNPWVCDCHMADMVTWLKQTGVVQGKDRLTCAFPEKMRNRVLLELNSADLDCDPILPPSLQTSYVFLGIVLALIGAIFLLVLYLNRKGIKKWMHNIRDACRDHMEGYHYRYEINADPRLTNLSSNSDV
Put plainly: FACS binding CHO-K1/cynomolgus 5T4 cells.

A further test deals with human CD137 on cells (UniProt Q07011 24-255). Put plainly: FACS binding CHO-K1/human CD137 cells. (In flow cytometry, cells or beads pass a laser one at a time.)
In another test the target is T2, human 5T4 on cells (UniProt Q13641 32-420).
T2 chain: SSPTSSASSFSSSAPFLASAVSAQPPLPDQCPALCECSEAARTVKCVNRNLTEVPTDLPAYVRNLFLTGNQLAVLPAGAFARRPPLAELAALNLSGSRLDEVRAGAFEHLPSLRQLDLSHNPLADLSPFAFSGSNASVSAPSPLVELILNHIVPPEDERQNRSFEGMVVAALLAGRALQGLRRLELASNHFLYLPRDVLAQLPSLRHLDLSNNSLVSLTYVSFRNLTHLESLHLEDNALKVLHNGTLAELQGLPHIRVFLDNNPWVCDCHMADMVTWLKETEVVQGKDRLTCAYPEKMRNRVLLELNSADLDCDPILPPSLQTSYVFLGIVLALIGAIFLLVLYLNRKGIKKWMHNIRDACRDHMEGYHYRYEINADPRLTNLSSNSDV
Put plainly: FACS binding CT26 human 5T4 cells; CT26 cells.

Sequence of human CD137 on cells (Q07011 24-255): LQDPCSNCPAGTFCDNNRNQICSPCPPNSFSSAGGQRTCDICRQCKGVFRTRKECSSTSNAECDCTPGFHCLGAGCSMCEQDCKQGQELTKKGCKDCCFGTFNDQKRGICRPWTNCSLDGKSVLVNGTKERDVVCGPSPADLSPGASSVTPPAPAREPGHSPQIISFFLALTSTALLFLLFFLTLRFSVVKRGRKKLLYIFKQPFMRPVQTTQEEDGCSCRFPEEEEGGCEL

B1: ALG.APV-004 (bispecific antibody)
chain 1: EVQLLESGGGLVQPGGSLRLSCAASGFTFSYGSMYWVRQAPGKGLEWVSSISSGSGSTYYADSVKGRFTISRDNSKNTLYLQMNSLRAEDTAVYYCARSSYYGSYYSIDYWGQGTLVTVSSEVQLLESGGGLVQPGGSLRLSCAASGFTFSSYAMSWVRQAPGKCLEWVSAISGSGGSTYYADSVKGRFTISRDNSKNTLYLQMNSLRAEDTAVYYCARYYGGYYSAWMDYWGQGTLVTVSSDIQMTQSPSSLSASVGDRVTITCRASQSISSYLNWYQQKPGKAPKLLIYAASSLQSGVPSRFSGSGSGTDFTLTISSLQPEDFATYYCQQTYGYLHTFGCGTRLEIK
chain 2: DIQMTQSPSSLSASVGDRVTITCRASQSISSYLNWYQQKPGKAPKLLIYAASSLQSGVPSRFSGSGSGTDFTLTISSLQPEDFATYYCQQYYDNLPTFGQGTKLEIK
What is called EC50 is the concentration needed to bring the measured effect to its halfway point. B1: the EC50 in the test with cynomolgus 5T4 on cells came to 6.5 nM; with human CD137 on cells it was 0.39 nM; with human 5T4 on cells it was 1.5 nM.
